Laboratory results taken from paper PMC8976148, “Long-range structural preformation in yes-associated protein precedes encounter complex formation with TEAD” (iScience, 2022).
Residue numbers refer to the chain shown, from its start.

B1: YAP^50-171 (domain or fragment, UniProt P46937 50-171, looked up)
chain: AGHQIVHVRGDSETDLEALFNAVMNPKTANVPQTVPMRLRKLPDSFFKPPEPKSHSRQASTDAGTAGALTPQHVRAHSSPASLQLGAVSPGTLTPTGVVSGPAATPTAQHLRQSSFEIPDDV
notes: YAP (Yes-associated protein), residues 50-171; 15N-labelled in the intermolecular PRE control; also called YAP^wt; Yes-associated protein; source: E. coli Tuner(DE3), purified (HisTrap FF, 3C protease cleavage, heating to 90°C, size exclusion); not shown: His6, N-terminal, cleaved
B2: YAP^50-171 V80C (domain or fragment, UniProt P46937 50-171, looked up)
chain: B1 chain with V31C
notes: YAP (Yes-associated protein), residues 50-171; source: E. coli Tuner(DE3), purified (HisTrap FF, 3C protease cleavage, heating to 90°C, size exclusion; buffers with 1 mM DTT); not shown: His6, N-terminal, cleaved
B3: YAP^50-171 T119C (domain or fragment, UniProt P46937 50-171, looked up)
chain: B1 chain with T70C
notes: as for B2
B4: YAP^50-171 S138C (domain or fragment, UniProt P46937 50-171, looked up)
chain: B1 chain with S89C
notes: as for B2
B5: YAP^50-171 Q158C (domain or fragment, UniProt P46937 50-171, looked up)
chain: B1 chain with Q109C
notes: as for B2
B6: YAP^50-171 D60C (domain or fragment, UniProt P46937 50-171, looked up)
chain: B1 chain with D11C
notes: as for B2
B7: YAP^50-171 A71C (domain or fragment, UniProt P46937 50-171, looked up)
chain: B1 chain with A22C
notes: as for B2
B8: YAP^50-171 S164C (domain or fragment, UniProt P46937 50-171, looked up)
chain: B1 chain with S115C
notes: as for B2
B9: YAP^50-171 S103C (domain or fragment, UniProt P46937 50-171, looked up)
chain: B1 chain with S54C
notes: as for B2
B10: YAP^50-171 S127C (domain or fragment, UniProt P46937 50-171, looked up)
chain: B1 chain with S78C
notes: as for B2
B11: YAP^50-171 K90C (domain or fragment, UniProt P46937 50-171, looked up)
chain: B1 chain with K41C
notes: as for B2
B12: YAP^50-171 S149C (domain or fragment, UniProt P46937 50-171, looked up)
chain: B1 chain with S100C
notes: as for B2

Target: T1, Biotinylated N-Avitagged-TEAD4^217-434 (UniProt Q15561 217-434, biotin (biotinylated Avitag))
T1 construct: TEAD4, residues 217-434; not shown: Avitag, N-terminal, kept
Assay: FRET or BRET; TR-FRET competition: biotinylated N-Avitagged TEAD4 217-434 (1 nM) on LANCE Eu-W1024 streptavidin (0.5 nM), Cy5-labelled YAP as tracer, serial dilutions of the YAP proteins; 50 mM HEPES pH 7.4, 100 mM KCl, 0.05% Tween-20, 0.25 mM TCEP, 0.05% BSA, 2% DMSO; 1 h at room temperature
Conditions: both partners purified

T1 sequence (Q15561 217-434): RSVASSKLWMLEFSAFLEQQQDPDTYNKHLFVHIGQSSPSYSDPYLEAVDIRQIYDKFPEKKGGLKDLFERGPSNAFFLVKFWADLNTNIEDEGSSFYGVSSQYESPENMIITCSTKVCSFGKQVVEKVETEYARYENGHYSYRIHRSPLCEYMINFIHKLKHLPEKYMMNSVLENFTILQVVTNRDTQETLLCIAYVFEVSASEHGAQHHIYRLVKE

Binder	binding result
B1	binds
B2	binds
B3	binds
B4	binds
B5	binds
B6	binds
B7	binds
B8	binds
B9	binds
B10	binds
B11	binds
B12	binds
